Data from patent publication US20260103503A1.

Legend:
[1] = biological target: Tm NY-ESO (human); test: flow cytometry, tetramer staining of transduced CD4+ T cells; nt control Q2 0.56
[2] = biological target: Tm NY-ESO (human); test: flow cytometry, tetramer staining of transduced CD8+ T cells; nt control Q2 0.79
[3] = biological target: Tm NY-ESO (human); test: flow cytometry, tetramer staining of transduced CD4+ T cells; nt control Q1 0.020
[4] = biological target: Tm NY-ESO (human); test: flow cytometry, tetramer staining of transduced CD8+ T cells; nt control Q1 0.084
[5] = biological target: NY-ESO-1 peptide on HLA-A*02:01 (human); test: SPR as tabulated in Table 2 (BIAcore analysis); reference TCR; soluble, other

Substance | Q2 (Tm NY-ESO+ CD4+), percent of cells [1] [%] | Q2 (Tm NY-ESO+ CD8+), percent of cells [2] [%] | Q1 (Tm NY-ESO+ CD4-), percent of cells [3] [%] | Q1 (Tm NY-ESO+ CD8-), percent of cells [4] [%] | Kd [5] [µM] | koff [5] [s⁻¹] | kon [5] [M⁻¹ s⁻¹]
1G4LY TCR on transduced T cells | 63.2 | 64.9 | 0.89 | 2.53 |  |  | 
1G4 |  |  |  |  | 14.2 | 0.12 | 17000
